This is an account of results in PMC12071944, “Interaction Between Glucagon-like Peptide 1 and Its Analogs with Amyloid-β Peptide Affects Its Fibrillation and Cytotoxicity” (International Journal of Molecular Sciences, 2025).

What is called stoichiometry N is the number of molecules, sites or subunits per partner or assembly. As usually defined, the koff is a measure of how fast the partners let go of each other. One may read the kon as a measure of how fast the partners come together.

Values joined by “and” are separate entries in the source; they are usually repeats but may differ in a detail not shown here. Equal entries are not always repeated. Where two headings read alike, the source gives them in different places.

In experiment [1] the target is exenatide (UniProt P26349). The experiment is described as follows: dynamic light scattering; 29 µM Exen; 25 °C; 25 mM Tris-HCl, 140 mM NaCl, 4.9 mM KCl, […] CaCl2, 1 mM MgCl2, pH 7.4; degree of multimerization MWRh/MWm.
Experiment [2] addresses exenatide (UniProt P26349). The experiment is described as follows: dynamic light scattering; 115 µM Exen; 25 °C; 25 mM Tris-HCl, 140 mM NaCl, 4.9 mM KCl, […] CaCl2, 1 mM MgCl2, pH 7.4; degree of multimerization MWRh/MWm.
Experiment [3] deals with amyloid-β peptide, residues 1-40 (human) (UniProt P05067). The experiment is described as follows: BLI; Aβ40/Aβ42 immobilised on amine-reactive sensors (EDAC/sulfo-NHS), washed with 0.5% SDS; analyte 4–15 µM Exen; 25 °C; 20 mM Tris-HCl, 140 mM NaCl, 4.9 mM KCl, […] CaCl2, 1 mM MgCl2, pH 7.4; curves not fitted, KD estimated as the level of the analyte concentrations; apparent.

In experiment [4] the target is amyloid-β peptide, residues 1-42 (human) (UniProt P05067). Described as above.
Experiment [5] deals with amyloid-β peptide, residues 1-40 (human) (UniProt P05067).
For experiment [6], the target named is amyloid-β peptide, residues 1-42 (human) (UniProt P05067).
Experiment [7] concerns the target exenatide (UniProt P26349). In words: dynamic light scattering; […] µM Exen; 25 °C; 25 mM Tris-HCl, 140 mM NaCl, 4.9 mM KCl, […] CaCl2, 1 mM MgCl2, pH 7.4; degree of multimerization MWRh/MWm.
The target in experiment [8] is exenatide (UniProt P26349). The experiment is described as follows: dynamic light scattering; 234 µM Exen; 25 °C; 25 mM Tris-HCl, 140 mM NaCl, 4.9 mM KCl, […] CaCl2, 1 mM MgCl2, pH 7.4; degree of multimerization MWRh/MWm.
Experiment [9] deals with liraglutide (human). In words: dynamic light scattering; 52 µM Lira; 25 °C; 25 mM Tris-HCl, 140 mM NaCl, 4.9 mM KCl, […] CaCl2, 1 mM MgCl2, pH 7.4; degree of multimerization MWRh/MWm.
The target in experiment [10] is liraglutide (human). In words: dynamic light scattering; 13 µM Lira; 25 °C; 25 mM Tris-HCl, 140 mM NaCl, 4.9 mM KCl, […] CaCl2, 1 mM MgCl2, pH 7.4; degree of multimerization MWRh/MWm.
For experiment [11], the target named is amyloid-β peptide, residues 1-40 (human) (UniProt P05067). The experiment is described as follows: SPR. On the technique in general: Surface plasmon resonance follows binding to a sensor surface in real time, without labels.
The target in experiment [12] is amyloid-β peptide, residues 1-42 (human) (UniProt P05067). In words: SPR.
For experiment [13], the target named is amyloid-β peptide, residues 1-40 (human) (UniProt P05067). In words: BLI; Aβ40/Aβ42 immobilised on amine-reactive sensors (EDAC/sulfo-NHS), washed with 0.5% SDS; analyte 20 µM Lira; 25 °C; 20 mM Tris-HCl, 140 mM NaCl, 4.9 mM KCl, […] CaCl2, 1 mM MgCl2, pH 7.4; single binding site model (1), fitted for each analyte concentration; apparent constants. (Biolayer interferometry detects binding as a change in optical thickness at a sensor tip.)

For experiment [14], the target named is amyloid-β peptide, residues 1-42 (human) (UniProt P05067). The experiment is described as above.
The target of experiment [15] is amyloid-β peptide, residues 1-40 (human) (UniProt P05067). In words: BLI; Aβ40/Aβ42 immobilised on amine-reactive sensors (EDAC/sulfo-NHS), washed with 0.5% SDS; analyte 5 µM Lira; 25 °C; 20 mM Tris-HCl, 140 mM NaCl, 4.9 mM KCl, […] CaCl2, 1 mM MgCl2, pH 7.4; single binding site model (1), fitted for each analyte concentration; apparent constants.
Experiment [16] has as its target amyloid-β peptide, residues 1-42 (human) (UniProt P05067). The experiment is described as above.
Experiment [17] has as its target liraglutide (human). In words: dynamic light scattering; 6 µM Lira; 25 °C; 25 mM Tris-HCl, 140 mM NaCl, 4.9 mM KCl, […] CaCl2, 1 mM MgCl2, pH 7.4; degree of multimerization MWRh/MWm.
Experiment [18] has as its target amyloid-β peptide, residues 1-40 (human) (UniProt P05067). The experiment is described as follows: BLI; Aβ40/Aβ42 immobilised on amine-reactive sensors (EDAC/sulfo-NHS), washed with 0.5% SDS; analyte 10 µM Lira; 25 °C; 20 mM Tris-HCl, 140 mM NaCl, 4.9 mM KCl, […] CaCl2, 1 mM MgCl2, pH 7.4; single binding site model (1), fitted for each analyte concentration; apparent constants.

For experiment [19], the target named is amyloid-β peptide, residues 1-42 (human) (UniProt P05067). The experiment is described as above.
In experiment [20] the target is amyloid-β peptide, residues 1-40 (human) (UniProt P05067). The experiment is described as follows: BLI; Aβ40/Aβ42 immobilised on amine-reactive sensors (EDAC/sulfo-NHS), washed with 0.5% SDS; analyte Sema, 17 µM on Aβ40 and 38 µM on Aβ42; 25 °C; 20 mM HEPES-KOH, 140 mM NaCl, 4.9 mM KCl, […] CaCl2, 1 mM MgCl2, pH 7.4; heterogeneous ligand scheme (2).
In experiment [21] the target is amyloid-β peptide, residues 1-42 (human) (UniProt P05067). The description is as above.
The target in experiment [22] is semaglutide (human). In words: dynamic light scattering; 12 µM Sema; 25 °C; 25 mM Tris-HCl, 140 mM NaCl, 4.9 mM KCl, […] CaCl2, 1 mM MgCl2, pH 7.4; degree of multimerization MWRh/MWm.

As for “exenatide (from UniProt P26349 48-87) (peptide)”, the stoichiometry N was determined as 2.1 in experiment [1], 6.4 in experiment [2], 1.6 in [7] and 5.88 in experiment [8]. Besides, the Kd in [3] is 4000 nM and 15000 nM; in [4], 4000 nM and 15000 nM; in experiment [5] it was 1000 nM; in experiment [6], 1000 nM.
For liraglutide (peptide), the figures for the stoichiometry N in [9], in [10] and in experiment [17] were 16.3, 6.5 and 8.2, respectively. Further, the KD1 (heterogeneous ligand model, site 1) is 950 nM in [11] and 520 nM in experiment [12]. The results for the KD2 (heterogeneous ligand model, site 2) in [11] and in [12] were 9.1 µM and 5.6 µM, respectively. The values for the ka1 (heterogeneous ligand model, site 1) in experiment [11] and in [12] were 1440 M⁻¹ s⁻¹ and 2240 M⁻¹ s⁻¹, respectively. The ka2 (heterogeneous ligand model, site 2) came out at 1900 M⁻¹ s⁻¹ in experiment [11] and 2900 M⁻¹ s⁻¹ in [12]. Moreover, the kd1 (heterogeneous ligand model, site 1) in experiment [11] stood at 0.00119 s⁻¹; in [12], 0.00114 s⁻¹. For the same substance, the kd2 (heterogeneous ligand model, site 2) came to 0.017 s⁻¹ in experiment [11] and 0.0164 s⁻¹ in [12]. Also, the Kd in experiment [13] was determined as 110 nM; in [14], 110 nM; in experiment [15] it was 42 nM; in [16], 45 nM; in [18], 48 nM; in [19], 60 nM. For the same substance, the dissociation rate constant (koff) in experiment [13] came out at 0.0009 s⁻¹; in [14], 0.0006 s⁻¹; in experiment [15], 0.000556 s⁻¹; in experiment [16] it was 0.00054 s⁻¹; in [18], 0.000346 s⁻¹; in [19], 0.000482 s⁻¹. For the same substance, the on-rate (kon) amounted to 8400 M⁻¹ s⁻¹ in [13]; 5700 M⁻¹ s⁻¹ in experiment [14]; 13400 M⁻¹ s⁻¹ in experiment [15]; 12100 M⁻¹ s⁻¹ in experiment [16]; 7300 M⁻¹ s⁻¹ in experiment [18]; 8000 M⁻¹ s⁻¹ in experiment [19].
For semaglutide (peptide), in experiment [20], the KD1 (heterogeneous ligand scheme, site 1) was determined as 12 µM; the KD2 (heterogeneous ligand scheme, site 2) turned out to be 16 µM; the ka1 (heterogeneous ligand scheme, site 1) was 310 M⁻¹ s⁻¹; the ka2 (heterogeneous ligand scheme, site 2) stood at 5700 M⁻¹ s⁻¹. Moreover, in [20], the kd1 (heterogeneous ligand scheme, site 1) was found to be 0.0037 s⁻¹ and the kd2 (heterogeneous ligand scheme, site 2) came to 0.091 s⁻¹. In [21], this substance had a KD1 (heterogeneous ligand scheme, site 1) of 11 µM; a KD2 (heterogeneous ligand scheme, site 2) of 22 µM; a ka1 (heterogeneous ligand scheme, site 1) of 582 M⁻¹ s⁻¹; a ka2 (heterogeneous ligand scheme, site 2) of 6100 M⁻¹ s⁻¹. In experiment [21], this substance registered a kd1 (heterogeneous ligand scheme, site 1) of 0.0064 s⁻¹ and a kd2 (heterogeneous ligand scheme, site 2) of 0.134 s⁻¹. In [11], this substance showed a KD1 (heterogeneous ligand model, site 1) of 340 nM; a KD2 (heterogeneous ligand model, site 2) of 1.2 µM; a ka1 (heterogeneous ligand model, site 1) of 9600 M⁻¹ s⁻¹; a ka2 (heterogeneous ligand model, site 2) of 39000 M⁻¹ s⁻¹. In [11], this substance returned a kd1 (heterogeneous ligand model, site 1) of 0.0032 s⁻¹ and a kd2 (heterogeneous ligand model, site 2) of 0.0432 s⁻¹. Further, in experiment [12], the KD1 (heterogeneous ligand model, site 1) was determined as 340 nM; the KD2 (heterogeneous ligand model, site 2) was found to be 0.3 µM; the ka1 (heterogeneous ligand model, site 1) stood at 12600 M⁻¹ s⁻¹; the ka2 (heterogeneous ligand model, site 2) was 134000 M⁻¹ s⁻¹. In experiment [12], the kd1 (heterogeneous ligand model, site 1) came out at 0.0041 s⁻¹ and the kd2 (heterogeneous ligand model, site 2) worked out at 0.038 s⁻¹. Moreover, in [22], the stoichiometry N came to 1.9.
